Reference: the supplement of paper PMC11316812
± gives the standard deviation of the averaged measurements.

Legend:
[1] = test system: hTERT-HMEC; assay: percentage of EdU-negative (G0-arrested) nuclei per well, 72 h; higher = more G0 arrest; details: reference: sequence is the full UniProt precursor, the tested protein was the secreted form or ectodomain
[2] = test system: MCF7; assay: as above; details: reference: sequence is the full UniProt precursor, the tested protein was the secreted form or ectodomain
[3] = protein concentration 0.03125 µM
[4] = protein concentration 0.3125 µM
[5] = protein concentration 0.0225 µM
[6] = protein concentration 0.01325 µM
[7] = protein concentration 0.1325 µM
[8] = protein concentration 0.01575 µM
[9] = protein concentration 0.1575 µM
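Also: secreted proteins added to cultured cells, EdU pulse at the end, nuclei found by Hoechst imaging, EdU status from nuclear versus surrounding ring intensity ratio, PBS as neutral control.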

MALLPVLFLVTVLLPSLPAEGKDPAFTALLTTQLQVQREIVNKHNELRKAVSPPASNMLKMEWSREVTTNAQRWANKCTLQHSDPEDRKTSTRCGENLYMSSDPTSWSSAIQSWYDEILDFVYGVGPKSPNAVVGHYTQLVWYSTYQVGCGIAYCPNQDSLKYYYVCQYCPAGNNMNRKNTPYQQGTPCAGCPDDCDKGLCTNSCQYQDLLSNCDSLKNTAGCEHELLKEKCKATCLCENKIY
percentage of EdU-negative [1, 3]: 5.26 ± 0.72% | percentage of EdU-negative [1, 4]: 6.12 ± 1.6% | percentage of EdU-negative [2, 3]: 26.4 ± 1.6% | percentage of EdU-negative [2, 4]: 25 ± 1.1%

MRPQGPAASPQRLRGLLLLLLLQLPAPSSASEIPKGKQKAQLRQREVVDLYNGMCLQGPAGVPGRDGSPGANGIPGTPGIPGRDGFKGEKGECLRESFEESWTPNYKQCSWSSLNYGIDLGKIAECTFTKMRSNSALRVLFSGSLRLKCRNACCQRWYFTFNGAECSGPLPIEAIIYLDQGSPEMNSTINIHRTSSVEGLCEGIGAGLVDVAIWVGTCSDYPKGDASTGWNSVSRIIIEELPK [Q96CG8]
percentage of EdU-negative [1, 5]: 5.305 ± 0.023% | percentage of EdU-negative ([1]; protein concentration 0.225 µM): 4.81 ± 1.6% | percentage of EdU-negative [2, 5]: 25.9 ± 1.8% | percentage of EdU-negative ([2]; protein concentration 0.225 µM): 22.2 ± 3.5%

MTPPKLRASLSPSLLLLLSGCLLAAARREKGAASNVAEPVPGPTGGSSGRFLSPEQHACSWQLLLPAPEAAAGSELALRCQSPDGARHQCAYRGHPERCAAYAARRAHFWKQVLGGLRKKRRPCHDPAPLQARLCAGKKGHGAELRLVPRASPPARPTVAGFAGESKPRARNRGRTRERASGPAAGTPPPQSAPPKENPSERKTNEGKRKAALVPNEERPMGTGPDPDGLDGNAELTETYCAEKWHSLCNFFVNFWNG [Q8TAT2]
percentage of EdU-negative [1, 6]: 4.87 ± 0.1% | percentage of EdU-negative [1, 7]: 6.22 ± 0.9% | percentage of EdU-negative [2, 6]: 25.1 ± 0.15% | percentage of EdU-negative [2, 7]: 27.7 ± 1.3%

MGLIWLLLLSLLEPGWPAAGPGARLRRDAGGRGGVYEHLGGAPRRRKLYCATKYHLQLHPSGRVNGSLENSAYSILEITAVEVGIVAIRGLFSGRYLAMNKRGRLYASEHYSAECEFVERIHELGYNTYASRLYRTVSSTPGARRQPSAERLWYVSVNGKGRPRRGFKTRRTQKSSLFLPRVLDHRDHEMVRQLQSGLPRPPGKGVQPRRRRQKQSPDNLEPSHVQASRLGSQLEASAH
percentage of EdU-negative ([1]; protein concentration 0.01 µM): 5.1 ± 0.81% | percentage of EdU-negative ([1]; protein concentration 0.1 µM): 6.93 ± 0.14% | percentage of EdU-negative ([2]; protein concentration 0.01 µM): 26.1 ± 0.46% | percentage of EdU-negative ([2]; protein concentration 0.1 µM): 27.4 ± 0.42%

MRAPGMRSRPAGPALLLLLLFLGAAESVRRAQPPRRYTPDWPSLDSRPLPAWFDEAKFGVFIHWGVFSVPAWGSEWFWWHWQGEGRPQYQRFMRDNYPPGFSYADFGPQFTARFFHPEEWADLFQAAGAKYVVLTTKHHEGFTNWPSPVSWNWNSKDVGPHRDLVGELGTALRKRNIRYGLYHSLLEWFHPLYLLDKKNGFKTQHFVSAKTMPELYDLVNSYKPDLIWSDGEWECPDTYWNSTNFLSWLYNDSPVKDEVVVNDRWGQNCSCHHGGYYNCEDKFKPQSLPDHKWEMCTSIDKFSWGYRRDMALSDVTEESEIISELVQTVSLGGNYLLNIGPTKDGLIVPIFQERLLAVGKWLSINGEAIYASKPWRVQWEKNTTSVWYTSKGSAVYAIFLHWPENGVLNLESPITTSTTKITMLGIQGDLKWSTDPDKGLFISLPQLPPSAVPAEFAWTIKLTGVK
percentage of EdU-negative [1, 3]: 5.35 ± 1.3% | percentage of EdU-negative [1, 4]: 6.003 ± 0.042% | percentage of EdU-negative [2, 3]: 23.7 ± 2% | percentage of EdU-negative [2, 4]: 27.8 ± 1.4%

MAAVVAATRWWQLLLVLSAAGMGASGAPQPPNILLLLMDDMGWGDLGVYGEPSRETPNLDRMAAEGLLFPNFYSANPLCSPSRAALLTGRLPIRNGFYTTNAHARNAYTPQEIVGGIPDSEQLLPELLKKAGYVSKIVGKWHLGHRPQFHPLKHGFDEWFGSPNCHFGPYDNKARPNIPVYRDWEMVGRYYEEFPINLKTGEANLTQIYLQEALDFIKRQARHHPFFLYWAVDATHAPVYASKPFLGTSQRGRYGDAVREIDDSIGKILELLQDLHVADNTFVFFTSDNGAALISAPEQGGSNGPFLCGKQTTFEGGMREPALAWWPGHVTAGQVSHQLGSIMDLFTTSLALAGLTPPSDRAIDGLNLLPTLLQGRLMDRPIFYYRGDTLMAATLGQHKAHFWTWTNSWENFRQGIDFCPGQNVSGVTTHNLEDHTKLPLIFHLGRDPGERFPLSFASAEYQEALSRITSVVQQHQEALVPAQPQLNVCNWAVMNWAPPGCEKLGKCLTPPESIPKKCLWSH
percentage of EdU-negative [1, 8]: 5.59 ± 0.71% | percentage of EdU-negative [1, 9]: 24.2 ± 1.3% | percentage of EdU-negative [2, 8]: 27.9 ± 1.1% | percentage of EdU-negative [2, 9]: 26.9 ± 0.35%
